Drawing on publication PMC7054360, “pH-responsive high stability polymeric nanoparticles for targeted delivery of anticancer therapeutics” (Communications Biology, 2020), this text covers Kd for 1 molecule.

The assay has as its target T1, bovine serum albumin (bovine, UniProt P02769 25-607).
T1 construct: bovine serum albumin; Free BSA in PBS, not the crosslinked BSA shell of the nanoparticles; also called BSA; source: bought: Sigma
Put plainly: fluorescence polarisation; fluorescence anisotropy of NBD; constant 0.4 uM ATRAM-NBD, increasing BSA (0.25-15 uM); PBS; room temperature; excitation 460 nm, emission 535 nm. Conditions: both partners purified. In general terms: Polarisation of emitted light reports the rotation of a fluorescent probe.

Where no end group is shown, it is not given here. The star is where a group is joined. NBD = O=[N+]([O-])c1ccc(*)c2nonc12

T1 sequence (P02769 25-607): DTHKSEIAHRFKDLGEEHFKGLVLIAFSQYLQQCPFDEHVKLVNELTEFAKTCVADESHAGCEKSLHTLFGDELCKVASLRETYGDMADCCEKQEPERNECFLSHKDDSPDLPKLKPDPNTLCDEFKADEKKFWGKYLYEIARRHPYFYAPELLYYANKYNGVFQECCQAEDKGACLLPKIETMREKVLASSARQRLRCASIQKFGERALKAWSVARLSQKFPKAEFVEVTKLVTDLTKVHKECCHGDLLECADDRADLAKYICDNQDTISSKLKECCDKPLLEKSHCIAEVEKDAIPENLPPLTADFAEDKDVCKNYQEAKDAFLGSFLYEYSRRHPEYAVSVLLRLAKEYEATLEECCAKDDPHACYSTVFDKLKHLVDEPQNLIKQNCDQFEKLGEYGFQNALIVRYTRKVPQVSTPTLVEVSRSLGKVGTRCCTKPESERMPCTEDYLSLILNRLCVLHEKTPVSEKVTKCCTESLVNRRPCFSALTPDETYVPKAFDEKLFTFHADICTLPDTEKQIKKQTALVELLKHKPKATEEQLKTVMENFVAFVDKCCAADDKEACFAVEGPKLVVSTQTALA

B1: NBD-labeled ATRAM (acidity-triggered rational membrane peptide), C-terminal cysteine variant (peptide)
peptide: GLAGLAGLLGLEGLLGLPLGLLEGLWLGLELEC(NBD)N
notes: designed pH-responsive ATRAM peptide, variant with a cysteine (underlined in print) next to the C-terminal residue; also called ATRAM-NBD; source: C-terminal cysteine ATRAM variant labelled with NBD; purified by PD-10 gel filtration and reverse-phase HPLC (parent ATRAM peptide: synthesized by Selleck Chemicals, Fmoc)
The term Kd denotes a measure of binding affinity in units of concentration. For B1, the affinity, expressed as Kd, was 295 nM.
